Reference: US10111948B2, “Synthetic hapten carrier compositions and methods” (TRIA BIOSCIENCE CORP., priority 2014, dated 2018)

B1: TCC^Nic4: trimeric coiled coil of three SEQ ID NO:13 monomers conjugated with average 4 nicotine 6-hexanoic acid per monomer (conjugate)
chain: KKIEKRIEKIEKRIKKIEKRIKKIEKRIKKIEKRIKKAKFVAAWTLKAAAYQNPTTYISVK
modifications: also: trimer (trimeric coiled coil of three monomers), ~4 nicotine 6-hexanoic acid haptens per monomer (sites not given here)

Tests used:
[1] = system: antisera isolated from TCC^Nic4 immunized mice; assay: competitive ELISA for specificity of nicotine binding by antisera
Method: FIG. 6 presents data showing specificity of nicotine binding by antisera isolated from TCC^Nic4 immunized mice determined by competitive ELISA for nicotine, cotinine, and acetylcholine.
Antibody affinity and the nicotine binding capacity of the anti-nicotine antibodies evoked in TCC^Nic4-immunized mice were examined. Mice were immunized with 2.5 μg TCC^Nic4 on days 0, 14, and 146, and antisera were obtained. Nicotine binding to antisera isolated from TCC^Nic4 immunized mice was determined by competitive ELISA for nicotine, cotinine, and acetylcholine.

[2] = system: C57BL/6 mice; assay: anti-nicotine antibody titers by ELISA in immunized C57BL/6 mice; type: in vivo
Method: FIGS. 3A-B illustrate anti-nicotine antibody titers as measured by ELISA. C57Bl/6 mice (n=5/group) were immunized (days 0, 14, and 146) with 2.5 μg of the trimeric coiled-coil peptide vaccine comprising peptide monomers with 16 lysines conjugated to an average of 4 nicotines per monomer. Control groups were administered KLH-Nic22 or PBS. Vaccines were formulated with (A) Alum adjuvant or (B) GLA-SE adjuvant. Sera were collected at the indicated times and assayed for anti-nicotine antibodies by ELISA.
FIG. 5 illustrates titer to nicotine in mice (C57Bl/6 mice (n=5/group)) immunized with the indicated doses of TCC^Nic4 plus GLA-SE adjuvant. Day 35 sera were assayed for anti-nicotine antibodies by ELISA.
FIGS. 10A-B show comparative antibody responses between TCC^Nic4 and KLH^Nic100. C57Bl/6 mice were immunized with each conjugate in the absence and presence of GLA-SE adjuvant. (A) Serum was assayed for anti-nicotine antibody responses by ELISA. (B) Data showing serum sequestration of nicotine. Percent inhibition of nicotine entry into the brain is indicated.
Trimeric coiled coil structures comprising three peptide monomers having an amino acid sequence set forth in SEQ ID NO:13 were conjugated as described above with nicotine to provide constructs comprising an average of 0.6, 4, and 14 nicotine molecules per monomeric peptide. […] Sera were collected periodically for approximately 20 weeks after the primary immunization, and anti-nicotine antibody titers were determined by ELISA.
In the same experiment, groups of mice were immunized with three non-TCC nicotine carriers, FGK4.5^nic19 and IgG2^nic17 and KLH^nic22. […] Sera were collected and measured for anti-nicotine and anti-carrier antibody titers by ELISA using, respectively, nicotine conjugated BSA, non-conjugated trimeric coiled-coil peptide, and non-conjugated KLH, FGK4.5, and IgG2 carriers used in the respective vaccine composition. Each sample was assayed in triplicate wells along with standard control sera, and the mean midpoint and endpoint titers (+/−SEM) were determined. […]

[3] = relative Kd of serum IgG by competitive ELISA; type: binding, mice
Method: FIGS. 7A-B illustrate antibody avidities of antisera from mice immunized with TCC conjugated to nicotine.
Relative Kd values of serum IgG were determined by competitive ELISA. Dilutions of antiserum were prepared and incubated with soluble nicotine (0.0001-100 μM). After equilibrium was achieved, binding to bovine serum albumin (BSA) conjugated to nicotine was measured. […] Each sample was assayed in triplicate wells along with standard control sera, and the mean midpoint and endpoint titers (+/−SEM) were determined.

[4] = serum nicotine binding capacity (inhibition RIA); details: serum of immunized mice
Method: Kd values were used to calculate total antibody concentrations according to the law of mass action equation: Kd=[Nic][Ig]/[Nic−Ig].
Plasma was assayed for nicotine binding capacity at various times following immunization. Plasma aliquots were spiked with increasing nicotine levels (0.0001-10 μM) (serum nicotine levels in heavy smokers is 100 ng/ml or 0.617 μM) and then subjected to inhibition RIA (with H^3-Nicotine as the tracer and non-radiolabeled nicotine as the inhibitor) to calculate the total nicotine binding IgG in serum (see, e.g., Moreno et al., 2010, Mol. Pharm. 7:431-41; Muller, 1983, Methods Enzymol. 92:589-601). Immobilized protein A was used to capture IgGs from the serum to separate them from free nicotine. Aliquots of both the protein A eluate and the serum supernatant were subjected to liquid scintillation counting to quantify the amount of tracer in each fraction.

[5] = system: mice; assay: nicotine distribution in serum/plasma and brain after nicotine injection in immunized mice; type: in vivo
Method: FIGS. 9A-C show the levels of nicotine in sera and brains of mice (n=5/group) immunized with PBS, TCC^Nic4 with and without alum and GLA-SE adjuvants, or KLH conjugated to nicotine (KLH^Nic22) with and without alum and GLA-SE adjuvants. Immunized mice were injected with a dose of nicotine tartrate equivalent to the nicotine in 3 cigarettes (1.2 μg). Five minutes later the mice were sacrificed, tissues removed, and the amount of nicotine in (A) sera and (B) brain were measured by mass spectrometry. (C) The calculated percent inhibition of nicotine entry into the brain is shown.
FIGS. 10A-B show comparative antibody responses between TCC^Nic4 and KLH^Nic100. C57Bl/6 mice were immunized with each conjugate in the absence and presence of GLA-SE adjuvant. […]
To test antibody function, TCC^Nic4 or KLH^Nic22 (non-adjuvanted; +Alum; or +GLA-SE) immunized mice were injected with free nicotine equivalent to 3 cigarettes. […] Nicotine was extracted from the plasma and brain tissues and then quantified by LC/MS. The amounts of nicotine in plasma (ng/ml) and brain (ng/g) were determined. […] Data were analyzed using GraphPad Prism (San Diego, Calif.). Statistically significant differences between 2 groups were calculated by Student's 2-tailed t-test on log transformed data and between 3 or more groups by 1-factor analysis of variance (ANOVA) followed by post-hoc analysis. […]

[6] = system: C57BL/6 mice; assay: nicotine-induced hypoactivity (locomotor activity, open field); type: in vivo; details: 10 daily 10 μg nicotine injections, 7 day rest, 10 μg challenge
Method: C57Bl/6 mice were immunized with TCC^Nic4 and KLH^Nic100 in the absence and presence of GLA-SE adjuvant. Immunized mice were sensitized to nicotine with 10 daily injections (10 μg). Following a 7 day rest period, mice were challenged with nicotine (10 μg), and locomoter activity was monitored using infrared beam-equipped open field chambers. The PBS-immunized group was not challenged with nicotine.
Furthermore, mice immunized with TCC^Nic4 and KLH^Nic100 with and without GLA-SE as described above were evaluated for nicotine-induced hypoactive behavior with nicotine challenges as described in Rosenberg et al. (2013, Hum. Gene Ther. 24:595-603). Immunized mice were sensitized with 10 daily injections of 10 μg of nicotine. After a 7 day rest period, the mice were then challenged with 10 μg of nicotine, and locomotor activity was monitored using infrared beam-equipped open field chambers. The mice immunized with PBS were not challenged with nicotine.

| Molecule | binding by antibodies induced by TCC^Nic4 immunization ([1]; competitive ELISA) | IC50 relative to nicotine ([1]; competitor in competitive ELISA) | anti-nicotine antibody titer compared with KLH^Nic22 ([2]; 2.5 μg on days 0, 14, 146, FIG. 3) | anti-nicotine antibody titers ([2]; adjuvanted (Alum or GLA-SE), 2.5 μg on days 0, 14, 146, sera for approx. 20 weeks) | dose achieving the maximum anti-nicotine antibody response ([2]; adjuvanted with GLA-SE, doses 0.1, 0.5, 1, 2.5 μg, day 35 sera) | specificity of antibodies induced by immunization ([1]; 2.5 μg on days 0, 14, 146) | antibody affinity compared to KLH^Nic22 ([3]; in the absence of adjuvant) | antibody affinity relative to antibodies evoked by KLH^Nic22 ([3]; in the presence of GLA-SE adjuvant) | Kd ([3]; in the presence of GLA-SE adjuvant, read-out: affinity of the antibodies evoked by immunization (Kd)) | nicotine binding capacity compared with control KLH conjugate [4] | nicotine in sera and brain, immunogen compared with KLH^Nic22 ([5]; combined with either adjuvant (Alum or GLA-SE), 5 min after nicotine injection) | circulating nicotine prevented from entering the brain ([5]; plus GLA-SE adjuvant, nicotine dose equivalent to 3 cigarettes, 5 min) | hypoactivity behavior after nicotine challenge ([6]; non-adjuvanted vaccine) | prevention of nicotine sensitization and hypoactivity behavior ([6]; with GLA-SE adjuvant) |
| --- | --- | --- | --- | --- | --- | --- | --- | --- | --- | --- | --- | --- | --- | --- |
| CN1C(=O)CC[C@H]1c1cccnc1 [cotinine] | did not bind physiological concentrations | 1000 fold |  |  |  |  |  |  |  |  |  |  |  |  |
| B1 |  |  | consistently greater | robust antibody titers | ≤ 100 ng | nicotine-specific | higher affinity antibodies | an order of magnitude greater | ~1 nM | significantly larger | superior immunogen | greater than 90% | hypoactivity observed | appeared equivalent in preventing nicotine sensitization and subsequent hypoactivity behavior |
